Test results reported in patent US7011951.
Positions count from the first letter of the chain named.

What was measured:
human AcinusS = target: T1, human AcinusS
T1 chain: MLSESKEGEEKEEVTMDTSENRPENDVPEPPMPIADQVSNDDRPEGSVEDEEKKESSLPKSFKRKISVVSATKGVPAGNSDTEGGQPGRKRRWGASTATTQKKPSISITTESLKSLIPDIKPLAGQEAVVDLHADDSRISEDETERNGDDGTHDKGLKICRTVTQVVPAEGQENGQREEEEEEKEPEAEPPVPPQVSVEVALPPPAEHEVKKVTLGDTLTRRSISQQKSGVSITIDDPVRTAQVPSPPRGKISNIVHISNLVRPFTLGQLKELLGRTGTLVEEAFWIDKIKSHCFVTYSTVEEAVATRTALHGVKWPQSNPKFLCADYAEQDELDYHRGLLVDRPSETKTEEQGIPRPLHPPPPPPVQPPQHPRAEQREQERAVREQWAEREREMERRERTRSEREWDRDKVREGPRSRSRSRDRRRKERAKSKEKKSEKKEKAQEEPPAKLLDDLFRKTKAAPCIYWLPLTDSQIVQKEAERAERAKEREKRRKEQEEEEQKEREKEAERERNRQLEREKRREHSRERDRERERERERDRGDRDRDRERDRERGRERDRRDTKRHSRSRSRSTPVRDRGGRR

[1] = target: T2, AcinusS (D/A) resulting from substitution of Asp^1093 with Ala
T2 chain: T1 chain with D335A

B1: recombinant active human caspase-3 (protein)
chain: SGISLDNSYKMDYPEMGLCIIINNKNFHKSTGMTSRSGTDVDAANLRETFRNLKYEVRNKNDLTREEIVELMRDVSKEDHSKRSSFVCVLLSHGEEGIIFGTNGPVDLKKITNFFRGDRCRSLTGKPKLFIIQACRGTELDCGIETDSGVDDDMACHKIPVEADFLYAYSTAPGYYSWRNSKDGSWFIQSLCAMLKQYADKLEFMHILTRVNRKVATEFESFSFDATFHAKKQIPCIVSMLTKELYFYH
cleavage of AcinusS by caspase-3 (SDS-PAGE, immunoblot; microsequencing of the cleavage product) (human AcinusS): human AcinusS was actually cleaved with caspase-3 in vivo, and the cleavage site was determined to be the Asp^1093 of DELD^1093 | in vitro cleavage by caspase-3 (SDS-PAGE, immunoblot) [1]: a mutation of substituting Asp^1093 with Ala (D/A) abolished the in vitro cleavage of Acinus by caspase-3
